These results are taken from paper PMC11746154, “Cryo-EM structures of the Spo11 core complex bound to DNA” (Nature Structural & Molecular Biology, 2023).

To fix the notation:
T1: Spo11 (subunit of the purified S. cerevisiae Spo11 core complex) (S. cerevisiae, UniProt P23179 1-392)
T1 construct: Spo11, S. cerevisiae
T1 sequence: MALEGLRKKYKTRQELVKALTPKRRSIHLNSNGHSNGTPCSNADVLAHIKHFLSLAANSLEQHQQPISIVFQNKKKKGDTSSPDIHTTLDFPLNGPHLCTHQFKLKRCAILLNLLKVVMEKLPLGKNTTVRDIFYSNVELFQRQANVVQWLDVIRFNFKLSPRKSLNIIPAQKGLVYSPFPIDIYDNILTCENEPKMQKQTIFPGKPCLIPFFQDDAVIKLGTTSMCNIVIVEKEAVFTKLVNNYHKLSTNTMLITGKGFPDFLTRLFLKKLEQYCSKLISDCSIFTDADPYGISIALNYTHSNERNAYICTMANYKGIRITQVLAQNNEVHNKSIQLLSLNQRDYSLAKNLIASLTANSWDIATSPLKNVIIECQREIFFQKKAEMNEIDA

B1: Rec102 (subunit of the purified S. cerevisiae Spo11 core complex) (natural protein)
chain: MARDITFLTVFLESCGAVNNDEAGKLLSAWTSTVRIEGPESTDSNSLYIPLLPPGMLKIKLNFKMNDRLVTEEQELFTKLREIVGSSIRFWEEQLFYQVQDVSTIENHVILSLKCTILTDAQISTFISKPRELHTHAKGYPEIYYLSELSTTVNFFSKEGNYVEISQVIPHFNEYFSSLIVSQLEFEYPMVFSMISRLRLKWQQSSLAPISYALTSNSVLLPIMLNMIAQDKSSTTAYQILCRRRGPPIQNFQIFSLPAVTYNK
notes: Rec102, S. cerevisiae
B2: Ski8 (subunit of the purified S. cerevisiae Spo11 core complex) (natural protein)
chain: MSKVFIATANAGKAHDADIFSVSACNSFTVSCSGDGYLKVWDNKLLDNENPKDKSYSHFVHKSGLHHVDVLQAIERDAFELCLVATTSFSGDLLFYRITREDETKKVIFEKLDLLDSDMKKHSFWALKWGASNDRLLSHRLVATDVKGTTYIWKFHPFADESNSLTLNWSPTLELQGTVESPMTPSQFATSVDISERGLIATGFNNGTVQISELSTLRPLYNFESQHSMINNSNSIRSVKFSPQGSLLAIAHDSNSFGCITLYETEFGERIGSLSVPTHSSQASLGEFAHSSWVMSLSFNDSGETLCSAGWDGKLRFWDVKTKERITTLNMHCDDIEIEEDILAVDEHGDSLAEPGVFDVKFLKKGWRSGMGADLNESLCCVCLDRSIRWFREAGGK
notes: Ski8, S. cerevisiae
B3: Rec104 (subunit of the purified S. cerevisiae Spo11 core complex) (natural protein)
chain: MSIEEEDTNKITCTQDFLHQYFVTERVSIQFGLNNKTVKRINKDEFDKAVNCIMSWTNYPKPGLKRTASTYLLSNSFKKSATVSLPFILGDPVCMPKRVESNNNDTCLLYSDTLYDDPLIQRNDQAGDEIEDEFSFTLLRSEVNEIRPISSSSTAQILQSDYSALMYERQASNGSIFQFSSP
notes: Rec104, S. cerevisiae; 182 residues as printed, of which only 9-58 are visible in the structure

The target of test [1] is T1, Spo11 (subunit of the purified S. …). The experiment in a line: cryo-EM structure; core complex (subunits co-expressed and co-purified, ~0.2 mg/ml) incubated with hairpin DNA (3.7 Å) or gapped DNA (3.3 Å) at 1:2 protein:DNA in 25 mM HEPES-NaOH pH 7.5, 150 mM NaCl, 5 mM MgCl2, 2 mM DTT, 2% glycerol, 1 h on ice. The following applies: both partners purified.
Test [2] addresses B1. The description is as above. The following applies: both partners purified.

As to B1, the stoichiometry N (in general, a count of units in the complex or per binding partner) in test [1] is 1.
B2: the “stoichiometry N” value in test [1] is 1.
For the molecule B3, the “stoichiometry N” value in test [1] and in test [2] was 1 throughout.
